{"source": "patent US20220278152", "about": "“SPECTRALLY FILTERED PHOTODIODE PAIR” (UNIVERSITY OF MASSACHUSETTS, published 2022)", "key": {"Interferon gamma (IFN-γ)": {"biological_target": "Interferon gamma (IFN-γ) (Homo sapiens, UniProt P01579 P01579:24-166)", "sequence (P01579 24-166, one chain of several)": "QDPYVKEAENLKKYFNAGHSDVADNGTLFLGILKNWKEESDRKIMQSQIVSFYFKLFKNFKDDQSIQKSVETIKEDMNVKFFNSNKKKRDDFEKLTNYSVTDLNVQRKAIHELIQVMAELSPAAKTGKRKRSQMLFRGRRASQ", "test": "FRET ratiometric photodiode aptasensor; aptamer on AF555-streptavidin/biotin-BSA surface; signal change 0.1-10 pM, LOD 1 pM, saturated at 100 pM-1 nM; 1x PBS; reversible by 55 C water wash", "settings": "tags: R&D Systems, recombinant human IFN-γ; chain copies: 2; label: Cy5 (5'), biotin (3'); hairpin (self-hybridizes without IFN-γ)", "excerpt": "To package the PD array for ratiometric aptasensing experiments, a 50 μm tall PDMS microfluidic channel with one inlet and one outlet hole was fabricated via a standard SU-8 photolithography process, and then bonded the microfluidic channel over the PD array via O₂ plasma. Tubing was inserted into the inlet and outlet holes to allow for injection and removal of analytes. To achieve ratiometric aptasensing […], the surface of the array was functionalized by sequentially introducing BSA, AF555 conjugated streptavidin, and biotinylated Cy5 labeled IFN-γ DNA aptamers. After each analyte's respective incubation period, the extra unbonded analyte was removed by washing with 9 mL deionized water.\nFollowing this surface functionalization procedure, two aptasensing experiments were conducted where, in each experiment, the device was kept in 1×PBS and sequentially introduced 0.1 pM-1 nM analyte in 15-minute intervals followed by a water washing step and reintroduced analytes and water washing as 2nd round via the microfluidic channel (FID. 10a-c). During introducing each concentration, an upright fluorescence microscope was used to illuminate the PD array with pulses of 550/15 nm excitation light (Ilight=100%, 260 mW) which have tₒₙ/toff=18/162 s (i.e., 3 min period) to alleviate the photobleaching effect. […]"}, "Streptavidin": {"biological_target": "Streptavidin (UniProt P22629 P22629:25-183)", "sequence (P22629 25-183, one chain of several)": "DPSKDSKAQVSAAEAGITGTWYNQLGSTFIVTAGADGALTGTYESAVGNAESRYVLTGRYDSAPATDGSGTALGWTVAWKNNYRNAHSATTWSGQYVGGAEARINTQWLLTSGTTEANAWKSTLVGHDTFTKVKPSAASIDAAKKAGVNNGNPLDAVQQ", "test": "specificity control; 0.1 pM-1 nM free streptavidin, <5% signal change, 1x PBS; biotinylated aptamer already immobilised on surface streptavidin", "settings": "tags: Sigma Aldrich; chain copies: 4; label: Cy5 (5'), biotin (3'); hairpin (self-hybridizes without IFN-γ)", "procedure": "After each analyte's respective incubation period, the extra unbonded analyte was removed by washing with 9 mL deionized water.\nFollowing this surface functionalization procedure, two aptasensing experiments were conducted where, in each experiment, the device was kept in 1×PBS and sequentially introduced 0.1 pM-1 nM analyte in 15-minute intervals followed by a water washing step and reintroduced analytes and water washing as 2nd round via the microfluidic channel (FID. 10a-c). During introducing each concentration, an upright fluorescence microscope was used to illuminate the PD array with pulses of 550/15 nm excitation light (Ilight=100%, 260 mW) which have tₒₙ/toff=18/162 s (i.e., 3 min period) to alleviate the photobleaching effect.\nFor the first experiment, streptavidin was sequentially introduced as a control to evaluate the specificity of the array. […] For the second experiment, IFN-γ was sequentially introduced to evaluate the sensibility of the array. […] Due to this conformation change, less AF555 emission light will excite the Cy5 molecules, leading to the observed increase [decrease] in AF555 [Cy5] pixel signals."}}, "data": [{"binder": "GGGGTTGGTTGTGTTGGGTGTTGTGTCCAACCCCTTT (ssDNA, 5' Cy5, 3' biotin [1 (5' Cy5), 37 (3' biotin)])", "note": "[IFN-γ DNA aptamer]", "values": [{"measurement": "binding result", "setting": "Interferon gamma (IFN-γ)", "value": "binds"}, {"measurement": "binding result", "setting": "Streptavidin", "value": "no binding"}]}]}
